In US20210253718A1 (MODMAB THERAPEUTICS, published 2021):
Residue numbers refer to the chain shown, from its start.

T1: FZD10 cysteine-rich domain (CRD), MYC-tagged and GPI-anchored on CHO cells (human, UniProt Q9ULW2 30-156, GPI anchor)
T1 construct: also called FZD10 CRD; CHO-myc-FZDGPI; not shown: MYC tag and GPI anchor signal
T1 sequence: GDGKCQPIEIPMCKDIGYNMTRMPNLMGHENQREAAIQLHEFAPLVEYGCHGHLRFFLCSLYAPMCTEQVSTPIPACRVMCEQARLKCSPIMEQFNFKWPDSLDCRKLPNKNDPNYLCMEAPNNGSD

T2: FZD8 cysteine-rich domain (CRD), MYC-tagged and GPI-anchored on CHO cells (human, UniProt Q498S8 31-155 (rat entry), GPI anchor)
T2 construct: also called FZD8 CRD; CHO-myc-FZDGPI; not shown: MYC tag and GPI anchor signal
T2 sequence: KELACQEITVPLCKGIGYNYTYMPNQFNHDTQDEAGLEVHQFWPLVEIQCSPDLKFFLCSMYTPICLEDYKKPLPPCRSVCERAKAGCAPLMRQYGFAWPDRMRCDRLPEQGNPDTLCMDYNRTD

T3: FZD5 cysteine-rich domain (CRD), MYC-tagged and GPI-anchored on CHO cells (human, UniProt Q13467 29-156, GPI anchor)
T3 construct: also called FZD5 CRD; CHO-myc-FZDGPI; not shown: MYC tag and GPI anchor signal
T3 sequence: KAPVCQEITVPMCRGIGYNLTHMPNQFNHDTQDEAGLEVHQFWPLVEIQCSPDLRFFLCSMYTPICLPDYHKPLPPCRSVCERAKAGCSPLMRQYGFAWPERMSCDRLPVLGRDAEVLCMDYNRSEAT

T4: FZD3 cysteine-rich domain (CRD), MYC-tagged and GPI-anchored on CHO cells (human, UniProt Q9NPG1 24-150, GPI anchor)
T4 construct: domain: cysteine-rich domain (CRD); also called FZD3 CRD; CHO-myc-FZDGPI; not shown: MYC tag and GPI anchor signal
T4 sequence (looked up): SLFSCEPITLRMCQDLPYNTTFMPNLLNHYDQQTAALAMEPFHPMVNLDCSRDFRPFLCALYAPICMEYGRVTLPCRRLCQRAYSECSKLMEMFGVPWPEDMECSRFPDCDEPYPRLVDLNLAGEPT

T5: FZD4 cysteine-rich domain (CRD), MYC-tagged and GPI-anchored on CHO cells (human, UniProt Q9ULV1 42-167, GPI anchor)
T5 construct: also called FZD4 CRD; CHO-myc-FZDGPI; not shown: MYC tag and GPI anchor signal
T5 sequence: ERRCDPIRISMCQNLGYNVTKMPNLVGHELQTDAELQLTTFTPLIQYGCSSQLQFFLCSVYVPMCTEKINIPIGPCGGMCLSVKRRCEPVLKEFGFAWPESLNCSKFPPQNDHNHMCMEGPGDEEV

T6: FZD9 cysteine-rich domain (CRD), MYC-tagged and GPI-anchored on CHO cells (human, UniProt O00144 35-161, GPI anchor)
T6 construct: also called FZD9 CRD; CHO-myc-FZDGPI; not shown: MYC tag and GPI anchor signal
T6 sequence: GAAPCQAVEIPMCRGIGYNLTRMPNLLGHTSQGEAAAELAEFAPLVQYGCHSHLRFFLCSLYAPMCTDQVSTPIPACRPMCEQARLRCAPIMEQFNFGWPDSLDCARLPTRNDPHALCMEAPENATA

T7: FZD6 cysteine-rich domain (CRD), MYC-tagged and GPI-anchored on CHO cells (human, UniProt O60353 20-146, GPI anchor)
T7 construct: also called FZD6 CRD; CHO-myc-FZDGPI; not shown: MYC tag and GPI anchor signal
T7 sequence: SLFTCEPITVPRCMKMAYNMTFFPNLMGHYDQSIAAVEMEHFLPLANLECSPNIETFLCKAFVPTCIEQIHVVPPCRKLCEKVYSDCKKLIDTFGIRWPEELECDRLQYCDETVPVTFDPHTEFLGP

B1: Fab-2934 (Fab, V domains shown)
VH: EVQLVESGGGLVQPGGSLRLSCAASGFNISYSYMHWVRQAPGKGLEWVASIYSSSGSTSYADSVKGRFTISADTSKNTAYLQMNSLRAEDTAVYYCARGAIDYWGQGTLVTVSS
VL: DIQMTQSPSSLSASVGDRVTITCRASQSVSSAVAWYQQKPGKAPKLLIYSASSLYSGVPSRFSGSRSGTDFTLTISSLQPEDFATYYCQQWYHYGLITFGQGTKVEIK
notes: Fab; also called Fv-2934
B2: Fab-2902 (Fab, V domains shown)
VH: B1 VH with S32Y, M34I, Y52S, G56S, I101L
VL: DIQMTQSPSSLSASVGDRVTITCRASQSVSSAVAWYQQKPGKAPKLLIYSASSLYSGVPSRFSGSRSGTDFTLTISSLQPEDFATYYCQQWYAFGALITFGQGTKVEIK
notes: Fab; also called Fv-2902
B3: Fab-2923 (Fab, V domains shown)
VH: B1 VH with I29L, S30Y, S32Y, I101M
VL: B2 VL with A93G, F94Y, G95S
notes: Fab; also called Fv-2923
B4: Fab-2935 (Fab, V domains shown)
VH: B1 VH with S30Y, S32Y, M34I, S53P, G99A, I101F
VL: B2 VL with A93G, F94G, G95Y
notes: Fab; also called Fv-2935
B5: Fab-2909 (Fab, V domains shown)
VH: EVQLVESGGGLVQPGGSLRLSCAASGFNISSSYMHWVRQAPGKGLEWVASISSSSGYTSYADSVKGRFTISADTSKNTAYLQMNSLRAEDTAVYYCARTVRGSKKPYFSGWAMDYWGQGTLVTVSS
VL: B2 VL with W91S, Y92W, A93S, F94Y, G95H, A96Y
notes: Fab; also called Fv-2909
B6: Fab-2922 (Fab, V domains shown)
VH: B5 VH with S30Y, S53P, S54Y
VL: B2 VL with W91S, Y92F, A93V, F94Y, G95P, A96Y
notes: Fab; also called Fv-2922

How the values were obtained:
[1] = molecular target: T1, FZD10 cysteine-rich domain (CRD), …; assay: flow cytometry, CHO-CRD cells;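 further: flow cytometry of Fab binding to CHO cells overexpressing a Frizzled CRD, with binding defined as median fluorescence over twice that of CHO cells lacking any Frizzled CRD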
Description: (§1) Binding was measured via flow cytometry analysis of CHO cells overexpressing CRD of FZD1, FZD2, FZD3, FZD4, FZD5, FZD6, FZD7, FZD8, FZD9 or FZD10. Median fluorescence values are shown.

[2] = molecular target: T8, FZD7 cysteine-rich domain (CRD), MYC-tagged and GPI-anchored on CHO cells (human, UniProt O75084 45-169); assay: flow cytometry, CHO-CRD cells;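 further: flow cytometry of Fab binding to CHO cells overexpressing a Frizzled CRD, with binding defined as median fluorescence over twice that of CHO cells lacking any Frizzled CRD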
Description: as §1

[3] = molecular target: T2, FZD8 cysteine-rich domain (CRD), …; assay: flow cytometry, CHO-CRD cells;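 further: flow cytometry of Fab binding to CHO cells overexpressing a Frizzled CRD, with binding defined as median fluorescence over twice that of CHO cells lacking any Frizzled CRD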
Description: as §1

[4] = molecular target: T3, FZD5 cysteine-rich domain (CRD), …; assay: flow cytometry, CHO-CRD cells;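 further: flow cytometry of Fab binding to CHO cells overexpressing a Frizzled CRD, with binding defined as median fluorescence over twice that of CHO cells lacking any Frizzled CRD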
Description: as §1

[5] = molecular target: T9, FZD1 cysteine-rich domain (CRD), MYC-tagged and GPI-anchored on CHO cells (human); assay: flow cytometry, CHO-CRD cells
Description: as §1

[6] = molecular target: T4, FZD3 cysteine-rich domain (CRD), …; assay: flow cytometry, CHO-CRD cells
Description: as §1

[7] = molecular target: T5, FZD4 cysteine-rich domain (CRD), …; assay: flow cytometry, CHO-CRD cells
Description: as §1

[8] = molecular target: T6, FZD9 cysteine-rich domain (CRD), …; assay: flow cytometry, CHO-CRD cells
Description: as §1

[9] = molecular target: T7, FZD6 cysteine-rich domain (CRD), …; assay: flow cytometry, CHO-CRD cells
Description: as §1

[10] = molecular target: T1, FZD10 cysteine-rich domain (CRD), …; assay: immunofluorescence, CHO-CRD cells
[11] = molecular target: T8, FZD7 cysteine-rich domain (CRD), …; assay: immunofluorescence, CHO-CRD cells
[12] = molecular target: T4, FZD3 cysteine-rich domain (CRD), …; assay: immunofluorescence, CHO-CRD cells
[13] = molecular target: T5, FZD4 cysteine-rich domain (CRD), …; assay: immunofluorescence, CHO-CRD cells
[14] = molecular target: T6, FZD9 cysteine-rich domain (CRD), …; assay: immunofluorescence, CHO-CRD cells
[15] = molecular target: T7, FZD6 cysteine-rich domain (CRD), …; assay: immunofluorescence, CHO-CRD cells
[16] = molecular target: T10, FZD2 cysteine-rich domain (CRD), MYC-tagged and GPI-anchored on CHO cells (human, UniProt Q14332 35-161); assay: flow cytometry, CHO-CRD cells
Description: as §1

[17] = molecular target: T10, FZD2 cysteine-rich domain (CRD), …; assay: immunofluorescence, CHO-CRD cells
[18] = molecular target: T9, FZD1 cysteine-rich domain (CRD), …; assay: immunofluorescence, CHO-CRD cells

Binder | median fluorescence [1] | median fluorescence [2] | median fluorescence [3] | median fluorescence [4] | median fluorescence [5] | median fluorescence [6] | median fluorescence [7] | median fluorescence [8] | median fluorescence [9] | binding result [10] | binding result [11] | binding result [12] | binding result [13] | binding result [14] | binding result [15] | median fluorescence [16] | binding result [17] | binding result [18]
B1 | 2.67 | 3.52 | 29.4 | 34.3 | 61.5 | 3.28 | 4.78 | 2.71 | 2.86 | no binding | no binding | no binding | no binding | no binding | no binding |  |  | 
B2 | 4.1 | 16 | 13.9 | 36.9 | 6.1 | 6.44 |  | 3.96 | 4 | no binding |  | no binding |  | no binding | no binding | 8.98 | no binding | no binding
B3 | 4.22 | 6.04 | 11.9 | 36.9 | 6.04 | 6.67 |  | 4.83 | 4.33 | no binding | no binding | no binding |  | no binding | no binding | 7.91 | no binding | no binding
B4 | 3.34 | 3 | 15.8 | 29.2 | 4.07 | 4.49 |  | 3.52 | 3.37 | no binding | no binding | no binding |  | no binding | no binding | 6.79 | no binding | no binding
B5 | 2.71 | 4.57 |  | 31.3 | 4.61 | 3.43 | 4.1 | 2.57 | 2.89 | no binding |  | no binding | no binding | no binding | no binding | 5.38 | no binding | no binding
B6 | 2.74 | 2.62 | 9.14 | 56.2 | 4.83 | 4.1 |  | 2.89 | 3.68 | no binding | no binding | no binding |  | no binding | no binding | 4.78 | no binding | no binding
